Measured values: the supplement of paper PMC10724198
± gives the standard deviation of the averaged measurements.

How the values were obtained:
Saccharomyces cerevisiae [1] = experiment: protein stability index of tFT-peptide fusion in wild type (PSI (0-1 scale)); higher = more stable (slower turnover); details: genetic background: wild type
Description: (§1)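 MPS profiling in S. cerevisiae of two library types built from selected 12-aa C-degron peptides (IN1, IN2, LN1, LN3, VN2, R1-R5, W1-W3, Atg1 and Rpa12 C-termini): saturation mutagenesis libraries and C-terminal +1 capping libraries (13 aa). Each peptide is fused to the C-terminus of a sfGFP-mCherry timer, after a GGGS linker. Cells are FACS-sorted into 8 mCherry/sfGFP bins and sequenced. PSI runs from 0 (unstable) to 1 (stable), measured once in wild type and in the das1Δ or doa10Δ background.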

Saccharomyces cerevisiae [2] = experiment: protein stability index of tFT-peptide fusion in deletion strain of DAS1 (PSI (0-1 scale)); higher = more stable (slower turnover)
Description: as §1

Saccharomyces cerevisiae [3] = experiment: protein stability index of tFT-peptide fusion (C-terminal peptide) (PSI (0-1 scale)); higher = more stable (slower turnover); details: temperature: 30 C
Description: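 MPS profiling in S. cerevisiae of the yeast C-terminome library: the last 12 aa of each annotated ORF are fused to the C-terminus of a sfGFP-mCherry timer, after a GGGS linker. Cells are FACS-sorted into 8 mCherry/sfGFP bins and deep-sequenced. PSI runs from 0 (unstable) to 1 (stable); wild type and das1Δ backgrounds, two technical replicates each.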

[4] = genetic background: das1 deletion
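Wherever protein stability index of tFT-peptide fusion in deletion strain of DAS1 is given: PSI is a weighted mean of each variant's read distribution over the sorted stability bins, computed only for variants having over 10 reads in total.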
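Wherever protein stability index of tFT-peptide fusion in wild type is given: PSI derived as read-weighted mean over the 8 sorting bins, only variants exceeding 10 total reads kept, mCherry placed adjacent to the peptide and sfGFP distal.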

| Sequence | protein stability index (Saccharomyces cerevisiae [1]) | protein stability index (Saccharomyces cerevisiae [2]) | protein stability index (Saccharomyces cerevisiae [3]; [4]) | protein stability index (Saccharomyces cerevisiae [3]; genetic background: wild type) |
| --- | --- | --- | --- | --- |
| PTKRNHLIKLLN | 0.114 | 0.582 | – | – |
| PSLAASFWRPVG | 0.656 | 0.677 | – | – |
| CDKRNHLIKLLN | 0.153 | 0.589 | – | – |
| LKILRQKMNHQNH | 0.655 | 0.69 | – | – |
| QKYLEELQKKKF [YET2 C-terminal 12 aa] | – | – | 0.712 ± 0.023 | 0.7424 ± 0.0019 |
| SGFQFPFFGEEK [MRPL7 C-terminal 12 aa] | – | – | 0.717 ± 0.014 | 0.695 ± 0.037 |
| WYLQSVNLRDGV [HOL1 C-terminal 12 aa] | – | – | 0.6852 ± 0.005 | 0.688 ± 0.035 |
| CKQNSNCEYLYM [YOR365C C-terminal 12 aa] | – | – | 0.682 ± 0.012 | 0.699 ± 0.012 |
| DDKPKIPTMLNA [YME1 C-terminal 12 aa] | – | – | 0.7003 ± 0.0065 | 0.671 ± 0.046 |
| IKLNKKKVKLST [HHO1 C-terminal 12 aa] | – | – | 0.664 ± 0.0086 | 0.6099 ± 0.0033 |
| AWAKKLKSMRRS [TAM41 C-terminal 12 aa] | – | – | 0.709 ± 0.013 | 0.634 ± 0.021 |
| PLTRFHSCPITA [ECM13 C-terminal 12 aa] | – | – | 0.275 ± 0.035 | 0.301 ± 0.013 |
| GVGRIITQPQRY [HUA1 C-terminal 12 aa] | – | – | 0.7038 ± 0.0018 | 0.701 ± 0.043 |
| DPEPPKEDPHDH [TCP1 C-terminal 12 aa] | – | – | 0.706 ± 0.0085 | 0.704 ± 0.051 |
| GFRPAGATRFYS [YHR086W-A C-terminal 12 aa] | – | – | 0.6965 ± 0.0029 | 0.691 ± 0.016 |
| SVLVCFLLRRAS [YJR087W C-terminal 12 aa] | – | – | 0.506 ± 0.02 | 0.342 ± 0.0095 |
| VDYKTEPLQPLI [RGI2 C-terminal 12 aa] | – | – | 0.7 ± 0.022 | 0.678 ± 0.0079 |
| YKTKYIWERLGK [SPC24 C-terminal 12 aa] | – | – | 0.69 ± 0.012 | 0.694 ± 0.029 |
| PSYAKVQEFATP [NEO1 C-terminal 12 aa] | – | – | 0.71 ± 0.0097 | 0.684 ± 0.0059 |
| RWFKKKKETGGS [BUD2 C-terminal 12 aa] | – | – | 0.698 ± 0.0098 | 0.71919 ± 0.00068 |
| NEQVKKFFLNNV [NAS6 C-terminal 12 aa] | – | – | 0.701 ± 0.029 | 0.714 ± 0.01 |
| AIAKSIPKRVGL [PUT1 C-terminal 12 aa] | – | – | 0.718 ± 0.035 | 0.6998 ± 0.0057 |
| TYFSFHILFHNL [YOR309C C-terminal 12 aa] | – | – | 0.614 ± 0.0097 | 0.221 ± 0.013 |
| ENKLWNTEYFFC [ECM34 C-terminal 12 aa] | – | – | 0.738 ± 0.018 | 0.6655 ± 0.0018 |

| Sequence | protein stability index (Saccharomyces cerevisiae [1]) | protein stability index (Saccharomyces cerevisiae [2]) | protein stability index (Saccharomyces cerevisiae [3]; [4]) | protein stability index (Saccharomyces cerevisiae [3]; genetic background: wild type) |
| --- | --- | --- | --- | --- |
| GGFFKKLAQLLK [MDG1 C-terminal 12 aa] | – | – | 0.704 ± 0.015 | 0.719 ± 0.07 |
| NDGTSANSACSC [VPS21 C-terminal 12 aa] | – | – | 0.715 ± 0.012 | 0.691 ± 0.045 |
| LKALANETMSRI [VPS16 C-terminal 12 aa] | – | – | 0.712 ± 0.011 | 0.706 ± 0.049 |
| VWCSVKKRLLEK [TIM23 C-terminal 12 aa] | – | – | 0.724 ± 0.016 | 0.732 ± 0.037 |
| EIIDNWEKYEQS [FAS1 C-terminal 12 aa] | – | – | 0.706 ± 0.011 | 0.7 ± 0.04 |
| ITSKPPATVEWE [GUA1 C-terminal 12 aa] | – | – | 0.695 ± 0.01 | 0.726 ± 0.015 |
| SPPEEESQHGDV [SHB17 C-terminal 12 aa] | – | – | 0.696 ± 0.022 | 0.75 ± 0.032 |
| REVDDRFKVIYV [VPS35 C-terminal 12 aa] | – | – | 0.692 ± 0.018 | 0.695 ± 0.029 |
| VKKSNWSNYFKS [PCL2 C-terminal 12 aa] | – | – | 0.6868 ± 0.0023 | 0.682 ± 0.033 |
| QNQDEPITENFE [TUB2 C-terminal 12 aa] | – | – | 0.718 ± 0.016 | 0.718 ± 0.025 |
| LENTLKDSGVLQ [GPA2 C-terminal 12 aa] | – | – | 0.692 ± 0.002 | 0.717 ± 0.047 |
| LETDQDFLDGLL [YER034W C-terminal 12 aa] | – | – | 0.708 ± 0.021 | 0.695 ± 0.0081 |
| ESSAFEYPGGRL [BOI1 C-terminal 12 aa] | – | – | 0.7086 ± 0.0049 | 0.69 ± 0.0096 |
| VQHDPSVHTNQL [MAE1 C-terminal 12 aa] | – | – | 0.6923 ± 0.0028 | 0.664 ± 0.029 |
| VRDHFGVINSIW [YJL070C C-terminal 12 aa] | – | – | 0.715 ± 0.051 | 0.694 ± 0.011 |
| WKEDADKNAGHK [OCH1 C-terminal 12 aa] | – | – | 0.706 ± 0.012 | 0.731 ± 0.0062 |
| IDDINNDKWLVI [PSK1 C-terminal 12 aa] | – | – | 0.725 ± 0.001 | 0.688 ± 0.041 |
| WGIYEELVKRFM [HEM25 C-terminal 12 aa] | – | – | 0.7094 ± 0.0066 | 0.707 ± 0.013 |
| FCAAYQGKKNNK [SLN1 C-terminal 12 aa] | – | – | 0.696 ± 0.022 | 0.659 ± 0.039 |
| KWVGQYPVPGDI [SHM1 C-terminal 12 aa] | – | – | 0.693 ± 0.0071 | 0.687 ± 0.04 |
| QRIHQTLEVPNL [FAR1 C-terminal 12 aa] | – | – | 0.708 ± 0.01 | 0.692 ± 0.06 |
| YKNLRKTSSSHL [NPY1 C-terminal 12 aa] | – | – | 0.843 ± 0.028 | 0.84 ± 0.031 |
| ERRLNAIINGEV [YTH1 C-terminal 12 aa] | – | – | 0.689 ± 0.024 | 0.685 ± 0.034 |
